# Measurements as given in publication PMC6447857, “Structural Study of Agmatine Iminohydrolase From Medicago truncatula, the Second Enzyme of the Agmatine Route of Putrescine Biosynthesis in Plants” (Frontiers in Plant Science, 2019).
# B1: agmatine iminohydrolase from Medicago truncatula (enzyme)
# chain: SNAHGFHMPAEWEPHSQCWIGWPERADNWRDGAVHAQLVFTRVAAAISRFEKVTVCASSAQWENARNQLPDHVRVVEISSNDSWFRDIGPTFVVRRETSKSDDAEHRIAGIDWTFNSWGGLEDGCYCDWSLDSLVKKKILDVERIPRFSHSMVLEGGSIHVDGEGTCITTEECLLNKNRNPHLSKSQIEDELKAYLGVRKVIWLPRGLYGDDDTNGHVDNMCCFVRPGAVLLSWTDDKTDPQYERSEEAYSLFSSVTDANGRKFEVIKLHVPGPLYMTEKEAAGVFQDDGAKPRLPGTRLAASYVNFYIANGAIIAPQFGDKKWDDEAIRVLSKTFPHHEVVGIEGSREIVLSGGNIHCITQQQPAI
# notes: Ser-Asn-Ala linker from the vector pMCSG68 that is not cleaved from the expressed protein; agmatine iminohydrolase, Medicago truncatula, UniProt G7JT50, open reading frame MTR_4g112810, encoded protein starting from codon number 11 to the end; theoretical mass of the construct 41.2 kDa; Homodimer by MALS, SAXS and in both crystal forms; In 6NIC the protein holds the small molecule …
# Target: the molecule itself
# Test: SEC-MALS; in-line SEC (WTC-015S5 column) with MALS detector, 5.5 mg/ml MtAIH solution loaded; monomer to dimer
protein,measurement,value
B1,stoichiometry N,2
